The text below walks through data of the Human Domainome abundance scans (Beltran et al. 2025).

B1: POU domain, class 3, transcription factor 4, residues 280 to 335; numbered along this chain, P49335 (parent)
chain: KKRTSIEVSVKGVLETHFLKCPKPAAQEISSLADSLQLEKEVVRVWFCNRRQKEKR
B2: Tesmin, residues 368 to 403; numbered along this chain, Q9Y4I5 (parent)
chain: KGCNCRRSGCLKNYCECYEAQIMCSSICKCIGCKNY

± gives the uncertainty stated by the source.

The first series covers variants of B1. The experiment in a line: abundance fitness (aPCA) (normalised: wild type 0, dead -1); higher = more abundant; growth selection in yeast, the domain comes from the species named. The following applies: Homo sapiens.
Turning to KKRTPIEVSVKGVLETHFLKCPKPAAQEISSLADSLQLEKEVVRVWFCNRRQKEKR [S5P], the abundance fitness is -0.158 ± 0.19.

In the case of KKRRSIEVSVKGVLETHFLKCPKPAAQEISSLADSLQLEKEVVRVWFCNRRQKEKR [T4R], the abundance fitness was -0.419 ± 0.11.

Regarding KKRCSIEVSVKGVLETHFLKCPKPAAQEISSLADSLQLEKEVVRVWFCNRRQKEKR [T4C], the abundance fitness is -0.249 ± 0.18.

With KKRLSIEVSVKGVLETHFLKCPKPAAQEISSLADSLQLEKEVVRVWFCNRRQKEKR [T4L], the abundance fitness is -0.021 ± 0.11.

Turning to KKRESIEVSVKGVLETHFLKCPKPAAQEISSLADSLQLEKEVVRVWFCNRRQKEKR [T4E], the abundance fitness turned out to be 0.034 ± 0.24.

As to KKRGSIEVSVKGVLETHFLKCPKPAAQEISSLADSLQLEKEVVRVWFCNRRQKEKR [T4G], the abundance fitness is -0.189 ± 0.12.

For the variant KKRPSIEVSVKGVLETHFLKCPKPAAQEISSLADSLQLEKEVVRVWFCNRRQKEKR [T4P], the abundance fitness is -0.178 ± 0.15.

Turning to KKRWSIEVSVKGVLETHFLKCPKPAAQEISSLADSLQLEKEVVRVWFCNRRQKEKR [T4W], the abundance fitness is -0.486 ± 0.17.

For the variant KKRFSIEVSVKGVLETHFLKCPKPAAQEISSLADSLQLEKEVVRVWFCNRRQKEKR [T4F], the abundance fitness was -0.26 ± 0.25.

As for KKRASIEVSVKGVLETHFLKCPKPAAQEISSLADSLQLEKEVVRVWFCNRRQKEKR [T4A], the abundance fitness is -0.145 ± 0.16.

KKRKSIEVSVKGVLETHFLKCPKPAAQEISSLADSLQLEKEVVRVWFCNRRQKEKR [T4K]: the abundance fitness was found to be 0.011 ± 0.17.

In the case of KKRMSIEVSVKGVLETHFLKCPKPAAQEISSLADSLQLEKEVVRVWFCNRRQKEKR [T4M], the abundance fitness is 0.108 ± 0.14.

As to KKRSSIEVSVKGVLETHFLKCPKPAAQEISSLADSLQLEKEVVRVWFCNRRQKEKR [T4S], the abundance fitness turned out to be 0.213 ± 0.13.

For the variant KKRDSIEVSVKGVLETHFLKCPKPAAQEISSLADSLQLEKEVVRVWFCNRRQKEKR [T4D], the abundance fitness came to 0.34 ± 0.19.

KKRISIEVSVKGVLETHFLKCPKPAAQEISSLADSLQLEKEVVRVWFCNRRQKEKR [T4I]: the abundance fitness was 0.067 ± 0.3.

Take KKRHSIEVSVKGVLETHFLKCPKPAAQEISSLADSLQLEKEVVRVWFCNRRQKEKR [T4H]: the abundance fitness is -0.925 ± 0.36.

As to KKRYSIEVSVKGVLETHFLKCPKPAAQEISSLADSLQLEKEVVRVWFCNRRQKEKR [T4Y], the abundance fitness was -0.248 ± 0.22.

Variants of B2 are the subject of the next series. The description is as above. The settings on record: Homo sapiens.
As to KGCNCRRSGCLKNYCECYEAQIMCSSICKCIGCKCY [N35C], the abundance fitness was -0.384 ± 0.3.

Consider KGCNCRRSGCLKNYCECYEAQIMCSSICKCIGCKDY [N35D], for which the abundance fitness worked out at 0.18 ± 0.12.

On to KGCNCRRSGCLKNYCECYEAQIMCSSICKCIGCKVY [N35V], for which the abundance fitness was -0.362 ± 0.09.

With KGCNCRRSGCLKNYCECYEAQIMCSSICKCIGCKSY [N35S], the abundance fitness was -0.023 ± 0.093.

Take KGCNCRRSGCLKNYCECYEAQIMCSSICKCIGCKYY [N35Y]: the abundance fitness was -0.64 ± 0.36.

Take KGCNCRRSGCLKNYCECYEAQIMCSSICKCIGCKFY [N35F]: the abundance fitness was -0.614 ± 0.34.

For the variant KGCNCRRSGCLKNYCECYEAQIMCSSICKCIGCKPY [N35P], the abundance fitness was -0.055 ± 0.094.

In the case of KGCNCRRSGCLKNYCECYEAQIMCSSICKCIGCKWY [N35W], the abundance fitness is -0.233 ± 0.1.

As for KGCNCRRSGCLKNYCECYEAQIMCSSICKCIGCKAY [N35A], the abundance fitness is 0.141 ± 0.079.

Turning to KGCNCRRSGCLKNYCECYEAQIMCSSICKCIGCKTY [N35T], the abundance fitness was -0.167 ± 0.11.

Turning to KGCNCRRSGCLKNYCECYEAQIMCSSICKCIGCKGY [N35G], the abundance fitness came to 0.211 ± 0.074.

Turning to KGCNCRRSGCLKNYCECYEAQIMCSSICKCIGCKRY [N35R], the abundance fitness was -0.019 ± 0.077.

KGCNCRRSGCLKNYCECYEAQIMCSSICKCIGCKEY [N35E]: the abundance fitness amounted to 0.11 ± 0.09.

As to KGCNCRRSGCLKNYCECYEAQIMCSSICKCIGCKLY [N35L], the abundance fitness was -0.861 ± 0.22.

For KGCNCRRSGCLKNYCECYEAQIMCSSICKCIGCKKY [N35K], the abundance fitness is -0.44 ± 0.16.

Take KGCNCRRSGCLKNYCECYEAQIMCSSICKCIGCKQY [N35Q]: the abundance fitness came to 0.114 ± 0.11.

For KGCNCRRSGCLKNYCECYEAQIMCSSICKCIGCKNA [Y36A], the abundance fitness worked out at 0.209 ± 0.11.

With KGCNCRRSGCLKNYCECYEAQIMCSSICKCIGCKNI [Y36I], the abundance fitness was 0.371 ± 0.13.

In the case of KGCNCRRSGCLKNYCECYEAQIMCSSICKCIGCKNP [Y36P], the abundance fitness turned out to be 0.31 ± 0.095.

KGCNCRRSGCLKNYCECYEAQIMCSSICKCIGCKNK [Y36K]: the abundance fitness is -0.317 ± 0.26.

For the variant KGCNCRRSGCLKNYCECYEAQIMCSSICKCIGCKNS [Y36S], the abundance fitness is -0.016 ± 0.14.

On to KGCNCRRSGCLKNYCECYEAQIMCSSICKCIGCKNV [Y36V], for which the abundance fitness amounted to 0.286 ± 0.1.

For KGCNCRRSGCLKNYCECYEAQIMCSSICKCIGCKND [Y36D], the abundance fitness worked out at 0.145 ± 0.13.

On to KGCNCRRSGCLKNYCECYEAQIMCSSICKCIGCKNN [Y36N], for which the abundance fitness was 0.02 ± 0.14.

Turning to KGCNCRRSGCLKNYCECYEAQIMCSSICKCIGCKNL [Y36L], the abundance fitness was -0.05 ± 0.1.

Regarding KGCNCRRSGCLKNYCECYEAQIMCSSICKCIGCKNR [Y36R], the abundance fitness amounted to 0.305 ± 0.086.

As to KGCNCRRSGCLKNYCECYEAQIMCSSICKCIGCKNT [Y36T], the abundance fitness is 0.15 ± 0.18.

Take KGCNCRRSGCLKNYCECYEAQIMCSSICKCIGCKNW [Y36W]: the abundance fitness was determined as 0.02 ± 0.11.

Take KGCNCRRSGCLKNYCECYEAQIMCSSICKCIGCKNG [Y36G]: the abundance fitness stood at 0.193 ± 0.1.

Turning to KGCNCRRSGCLKNYCECYEAQIMCSSICKCIGCNNY [K34N], the abundance fitness came out at 0.06 ± 0.13.

With KGCNCRRSGCLKNYCECYEAQIMCSSICKCIGCVNY [K34V], the abundance fitness was 0.152 ± 0.078.

With KGCNCRRSGCLKNYCECYEAQIMCSSICKCIGCWNY [K34W], the abundance fitness is 0.003 ± 0.089.

With KGCNCRRSGCLKNYCECYEAQIMCSSICKCIGCSNY [K34S], the abundance fitness was found to be 0.073 ± 0.12.

Consider KGCNCRRSGCLKNYCECYEAQIMCSSICKCIGCQNY [K34Q], for which the abundance fitness is -0.107 ± 0.14.

KGCNCRRSGCLKNYCECYEAQIMCSSICKCIGCPNY [K34P]: the abundance fitness is 0.161 ± 0.21.

Consider KGCNCRRSGCLKNYCECYEAQIMCSSICKCIGCTNY [K34T], for which the abundance fitness was determined as 0.057 ± 0.1.
